# Experimental data taken from patent US20250163167A1 (SYNTHEKINE, published 2025).
# B1: hIL-10Rb_VHH15 Mono-Fc (Fc fusion)
# chain: QVQLQESGGGSVQAGGSLRLSCTVSRYTASVNYMGWFRQAPGKEREGVATIFTGAGTTYYANSVKGRFTISRDNAKNTAYLQMNSLKPEDTAIYYCAVDFRGGLLYRPAYEYTYRGQGTQVTVSS
# notes: Mono-Fc VHH captured on Protein A; not shown: mono-Fc part
# B2: hIL-10Rb_VHH1 Mono-Fc (Fc fusion)
# chain: QVQLQESGGGSVQAGGSLRLSCAASGYTYSSGCMGWFRQAPGKEREAVAAINSDGSTSYADSVKGRFTISKDNAKNTLYLQMNSLKPEDTAMYYCAAEPYCSGGYPRWSVAEFGYWGQGTQVTVSS
# notes: as for B1
# B3: hIL-10Rb_VHH27 Mono-Fc (Fc fusion)
# chain: QVQLQESGGGSVQTGGSLRLSCAASGYTYLRGCMGWFRQAPGKEREGVAVMDVVGDRRSYIDSVKGRFTISRDNAANSVYLQMDNLKPEDTAMYYCTAGPNCVGWRSGLDYWGQGTQVTVSS
# notes: as for B1
# B4: hIL-10Rb_VHH12 Mono-Fc (Fc fusion)
# chain: QVQLQESGGGSVQAGGSLRLSCAASGYTYSSYCMGWFRQAPGKEREGVAHIDSDGSTSYADSVKGRFTISKDNAKNTLYLQMNSLKPEDTAMYYCAADPIPGPGYCDGGPNKYWGQGTQVTVSS
# notes: as for B1
# B5: hIL-10Rb_VHH3 Mono-Fc (Fc fusion)
# chain: QVQLQESGGGSVQAGGSLRLSCAASRYTYNSYCMGWFRQAPGKEREGVATIDSDGMTRYADSVKGRFTISKDNAKNTLYLQMNSLKPEDTAMYYCAADADCTIAAMTTNPLGQGTQVTVSS
# notes: as for B1
# B6: hIL-10Rb_VHH26 Mono-Fc (Fc fusion)
# chain: QVQLQESGGGSVQAGGSLRLSCAASGYSYSSYCMGWFRQAPGKEREGVATIDSDGMTRYADSVKGRFTISKDNAKNTLYLQMNSLKPEDTAMYYCAAPLYDCDSGAVGRNPPYWGQGTQVTVSS
# notes: as for B1
# B7: hIL-10Rb_VHH16 Mono-Fc (Fc fusion)
# chain: QVQLQESGGGSVEAGGSLRLSCAASGYTHSSYCMGWFRQAPGKEREGVAAIDVDGSTTYADSVKGRFTISKDNAKNTLYLQMNSLKPEDTGMYYCAAEFADCSSNYFLPPGAVRYWGQGTQVTVSS
# notes: as for B1
# B8: DR1327 (anti mouse mIL10Rb VHH) (VHH)
# VHH: QVQLQESGGGSVQAGGSLRLSCAASGYTYNGKCMAWFRQAPGKEREVVAGIYTGGSSTYYADSVKGRFTISQDNAKNTVYLQMDSLKPEDTAMYYCATSRSCSDLRRRSIAYWGQGTQVTVSS
# notes: Phage clone, periplasmic extract
# B9: hIL10Ra_VHH17-hIL10Rb_VHH16 biotin (bispecific antibody)
# chain: QVQLQESGGGSVQAGGSLRLSCAASGYSNCSYDMTWYRQAPGKEREFVSAIHSDGSTRYADSVKGRFFISQDNAKNTVYLQMNSLKPEDTAMYYCKTDPLHCRAHGGSWYSVRANYWGQGTQVTVSSGGGSQVQLQESGGGSVEAGGSLRLSCAASGYTHSSYCMGWFRQAPGKEREGVAAIDVDGSTTYADSVKGRFTISKDNAKNTLYLQMNSLKPEDTGMYYCAAEFADCSSNYFLPPGAVRYWGQGTQVTVSS
# modifications: conjugated to biotin (site not stated)
# B10: hIL10Rb_VHH1-hIL10Ra_VHH9-biotin (bispecific antibody)
# chain: QVQLQESGGGSVQAGGSLRLSCAASGYTYSSGCMGWFRQAPGKEREAVAAINSDGSTSYADSVKGRFTISKDNAKNTLYLQMNSLKPEDTAMYYCAAEPYCSGGYPRWSVAEFGYWGQGTQVTVSSGGGSQVQLQESGGGSVQAGGSLRLSCAVSGYAYSTYCMGWFRQAPGKEREGVAAIDSGGSTSYADSVKGRFTISKDNAKNTLYLRMNSLKPEDTAMYYCAAVPPPPDGGSCLFLGPEIKVSKADFRYWGQGTQVTVSS
# modifications: conjugated to biotin (site not stated)
# B11: hIL10Rb_VHH12-hIL10Ra_VHH8 biotin (bispecific antibody)
# chain: QVQLQESGGGSVQAGGSLRLSCAASGYTYSSYCMGWFRQAPGKEREGVAHIDSDGSTSYADSVKGRFTISKDNAKNTLYLQMNSLKPEDTAMYYCAADPIPGPGYCDGGPNKYWGQGTQVTVSSGGGSQVQLQESGGGSVQAGGSLRLSCAASGYTYSMYCMGWFRQAPGKEREGVAQINSDGSTSYADSVKGRFTISKDNAKNTLYLQMNSLKPEDTAMYYCAADSRVYGGSWYERLCGPYTYEYNYWGQGTQVTVSS
# modifications: conjugated to biotin (site not stated)
# B12: hIL10Ra_VHH12-hIL10Rb_VHH27 biotin (bispecific antibody)
# chain: QVQLQESGGGSVQAGGSLRLSCTVSGYTYSSNCMGWFRQAPGKEREGVATIYTGGGNTYYADSVKGRFTISQDNAKNTVYLQMNNLKPEDTAMYYCAAEPLSRVYGGSCPTPTFDYWGQGTQVTVSSGGGSQVQLQESGGGSVQTGGSLRLSCAASGYTYLRGCMGWFRQAPGKEREGVAVMDVVGDRRSYIDSVKGRFTISRDNAANSVYLQMDNLKPEDTAMYYCTAGPNCVGWRSGLDYWGQGTQVTVSS
# modifications: conjugated to biotin (site not stated)
# notes: also called IL10 VHH DR509 biotin; DR509
# Target: T1, hIL10Rb-his (Sino Biological, Catalog#10945) (human, UniProt Q08334 20-220)
# T1 construct: Bought; also called Sino Biological cat#10945-H08H; not shown: C-terminal poly-His tag
# T1 sequence: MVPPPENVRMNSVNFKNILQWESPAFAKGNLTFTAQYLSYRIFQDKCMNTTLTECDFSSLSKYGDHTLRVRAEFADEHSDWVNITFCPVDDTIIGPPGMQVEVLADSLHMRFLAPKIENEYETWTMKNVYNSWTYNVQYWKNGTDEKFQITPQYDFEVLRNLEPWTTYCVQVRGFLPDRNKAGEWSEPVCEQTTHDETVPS
# Experiment: SPR Biacore T200; mono-Fc VHH captured on Protein A chip, hIL10Rb-his analyte; 1:1 Langmuir fit
Binder,Kd,koff,kon
B1,121 nM,0.00866 s⁻¹,71800 M⁻¹ s⁻¹
B2,8.3 nM,0.00144 s⁻¹,175000 M⁻¹ s⁻¹
B3,2.4 nM,0.0254 s⁻¹,1.07e+07 M⁻¹ s⁻¹
B4,12.9 nM,0.00143 s⁻¹,111000 M⁻¹ s⁻¹
B5,231 nM,0.0214 s⁻¹,92900 M⁻¹ s⁻¹
B6,314 nM,0.0213 s⁻¹,67800 M⁻¹ s⁻¹

# Target: T1, hIL10Rb-his (Sino Biological, …)
# Experiment: SPR Biacore T200; mono-Fc VHH captured on Protein A chip, hIL10Rb-his analyte; 1:1 Langmuir fit (row flagged: inaccurate fit)
# Description: To confirm and evaluate binding affinities of the binding of the hIL10Rb sdAbs, a representative example from each clonotype generated was selected for evaluation of binding via SPR. […] RMAX<100 RU indicates surface density compatible with kinetics analysis. Calculated Rmax values were generated using the equation: Rmax=Load (RU)×valency of ligand×(Molecular weight of analyte/Molecular weight of ligand). Surface activity was defined as the ratio of experimental/calculated Rmax.
# One representative example from each clonotype of IL10a generated in accordance with Examples 1-3 was selected for evaluation of binding via SPR as follows. […] All experiments were conducted in 10 mM Hepes, 150 mM NaCl, 0.05% (v/v) Polysorbate 20 (PS20) and 3 mM EDTA (HBS-EP+ buffer) on a Biacore T200 instrument equipped with a Protein A derivatized sensor chip (Cytiva). Mono-Fc VHH ligands were flowed at 5 μl/min for variable time ranging from 18 to 300 seconds, reaching the capture loads listed in the tables below. Following ligand capture, injections of a 2-fold dilution series of the extracellular domain of the […] modified to incorporate a C-terminal poly-His sequence, typically comprising at least five concentrations between 1 μM and 1 nM, were performed in either high performance or single cycle kinetics mode. Surface regeneration was achieved by flowing 10 mM glycine-HCl, pH 1.5 (60 seconds, 50 μL/min).
Binder,Kd,koff,kon
B7,7540 nM,0.0221 s⁻¹,2930 M⁻¹ s⁻¹

# Target: T2, mIL10Rb ECD antigen (mouse, UniProt Q61190 20-220)
# T2 construct: Antigen of biopanning and PE-ELISA; also called extracellular domain of mIL10Rb
# T2 sequence: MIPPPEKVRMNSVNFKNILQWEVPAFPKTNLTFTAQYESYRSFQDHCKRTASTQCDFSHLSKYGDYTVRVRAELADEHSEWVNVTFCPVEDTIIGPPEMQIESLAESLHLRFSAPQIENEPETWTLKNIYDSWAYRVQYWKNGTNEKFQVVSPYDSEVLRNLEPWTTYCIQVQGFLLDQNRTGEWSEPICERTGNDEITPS
# Experiment: periplasmic extract ELISA (PE-ELISA) of phage clones
row,Binder,binding result
1,B8,binds

# Target: T1, hIL10Rb-his (Sino Biological, …)
# Experiment: SPR Biacore T200; biotinylated dual VHH captured on CAP biotin chip, hIL10Rb-his analyte; 1:1 Langmuir fit
Binder,Kd,koff,kon
B9,2.9 nM,0.00045 s⁻¹,160000 M⁻¹ s⁻¹
B10,2.7 nM,0.0018 s⁻¹,660000 M⁻¹ s⁻¹
B11,1.5 nM,0.00068 s⁻¹,440000 M⁻¹ s⁻¹
B12,1.9 nM,0.003 s⁻¹,1.6e+06 M⁻¹ s⁻¹

# Target: T1, hIL10Rb-his (Sino Biological, …)
# Experiment: SPR; ratio of experimental to calculated Rmax
row,Binder,Surface Activity
1,B1,18%
2,B2,82%
3,B3,24%
4,B4,67%
5,B5,52%
6,B6,54%

# Target: T3, hIL10Ra-his (Sino Biological, Catalog#10419) (human, UniProt Q13651 22-235)
# T3 construct: Bought; also called Sino Biological cat#10419-H08H; not shown: C-terminal poly-His tag
# T3 sequence: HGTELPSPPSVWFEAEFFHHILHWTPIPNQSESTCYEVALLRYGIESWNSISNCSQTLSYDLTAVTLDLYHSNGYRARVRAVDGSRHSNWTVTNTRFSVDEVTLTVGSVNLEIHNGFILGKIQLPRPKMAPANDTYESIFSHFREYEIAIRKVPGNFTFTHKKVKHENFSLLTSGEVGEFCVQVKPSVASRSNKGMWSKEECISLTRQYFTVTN
# Experiment: SPR Biacore T200; biotinylated dual VHH captured on CAP biotin chip, hIL10Ra-his analyte; 1:1 Langmuir fit
Binder,Kd,koff,kon
B10,1.1 nM,0.00027 s⁻¹,250000 M⁻¹ s⁻¹
B11,0.35 nM,6.5e-05 s⁻¹,180000 M⁻¹ s⁻¹
B12,0.2 nM,0.00013 s⁻¹,490000 M⁻¹ s⁻¹

# Target: T1, hIL10Rb-his (Sino Biological, …)
# Experiment: SPR; ratio of experimental to calculated Rmax
# Remark: another data set of the same source
row,Binder,Activity
1,B9,34%
2,B10,25%
3,B11,42%
4,B12,85%

# Target: T3, hIL10Ra-his (Sino Biological, …)
# Experiment: SPR Biacore T200; biotinylated dual VHH captured on CAP biotin chip, hIL10Ra-his analyte; kon, koff and Rmax printed N/A
row,Binder,Kd
1,B9,< 5 nM
